# T1: HLA-A0201 (human, UniProt P04439 25-302 at identity 0.94))
# T1 MHC heavy: not shown
# T2: HLA-A2402 (human, UniProt P04439-2 25-302 at identity 0.92))
# T2 MHC heavy: not shown
# B1: SART-3 peptide "309-317" (peptide)
# peptide: RLAEYQAYI
# B2: SART-3 peptide "386-394" (peptide)
# peptide: LLAMERHGV
# B3: SART-3 peptide "152-160" (peptide)
# peptide: WLHDEISMA
# B4: SART-3 peptide "302-310" (peptide)
# peptide: LLQAEAPRL
# B5: SART-3 peptide "249-257" (peptide)
# peptide: SLFRRQLAI
# B6: SART-3 peptide "172-181" Leu-Phe-Glu-Lys-Ala-Val-Lys-Asp-Tyr-Ile (peptide)
# peptide: LFEKAVKDYI
# B7: SART-3 peptide "315-323" Ala-Tyr-Ile-Asp-Phe-Glu-Met-Lys-Ile (peptide)
# peptide: AYIDFEMKI
# B8: SART-3 peptide "284-292" Asn-Tyr-Asn-Lys-Ala-Leu-Gln-Gln-Leu (peptide)
# peptide: NYNKALQQL
# B9: SART-3 peptide "416-425" (peptide)
# peptide: DYVEIWQAYL
# B10: SART-3 peptide "109-118" Val-Tyr-Asp-Tyr-Asn-Cys-His-Val-Asp-Leu (peptide)
# peptide: VYDYNCHVDL
# B11: SART-3 peptide "448-456" Ala-Phe-Thr-Arg-Ala-Leu-Glu-Tyr-Leu (peptide)
# peptide: AFTRALEYL
# B12: SART-3 peptide "426-434" Asp-Tyr-Leu-Arg-Arg-Arg-Val-Asp-Phe (peptide)
# peptide: DYLRRRVDF
# Biological target: T1, HLA-A0201
# Assay: cell-based or functional assay
row,"IFN-γ in the supernatant (pg/ml) produced by OK-CTL on HLA-A0201-positive T2 cells pulsed with 10 µM peptide, value with no peptide subtracted",Binder
1,231 pg/mL,B1
2,122 pg/mL,B2
3,162 pg/mL,B3
4,190 pg/mL,B4
5,209 pg/mL,B5

# Biological target: T2, HLA-A2402
# Assay: cell-based or functional assay
row,IFN-γ in the supernatant (pg/ml) produced by KE-4CTL on HLA-A2402-transfected VA-13 cells pulsed with 10 µM peptide (no peptide: 677),Binder
1,830 pg/mL,B6
2,880 pg/mL,B7
3,794 pg/mL,B8
4,731 pg/mL,B9
5,928 pg/mL,B10
6,754 pg/mL,B11
7,833 pg/mL,B12

# — patent US20060140968A1 (GREEN PEPTIDE, published 2006)
